Source: the RNAGym collection of RNA variant scans (doi:10.7554/elife.90254)

B1: OR4K15 (parent)
chain: GUUAACGGUCAUAGGCCAUGGAAACUAGGAGCACCAUUUCGCUGCCAGUGAAGAAAUGAACAAAGAAAAUCUGGGCCAGGCAGGCAUCAAAAGAAAUAGUCUUGCGCUCAACCAGAAAGUCUGUAAUCAUUUUAAGGGUA

Variants of: B1
Assay: self-cleavage, relative activity (ratio to wild type); higher = more cleavage; in vitro, sequencing; the parent is a self-cleaving ribozyme
For GUUAACGGUCAUAGGCCAUGGAAACUUGGAGCACCAUUUCGCUGCCAGUGAAGAAAUGAACAAAGAAAAUCUGGGCCAGGCAGGCAUCAAAAGAAAUAGUCCUGCGCUCAACCAGAAAGUCUGUAAUCAUUUUAAGGGUA, the self-cleavage was 2.12. In the case of GUUAACGGUCAUAGGCCAUGGAAACUUGGAGCACCAUUUCGCUGCCAGUGAAGAAAUGAACAAAGAAAAUCUGGGCCAGGCAGGCAUCAAAAGAAGUAGUCUUGCGCUCAACCAGAAAGUCUGUAAUCAUUUUAAGGGUA, the self-cleavage is reported as 1.6. Work on GUUAACGGUCAUAGGCCAUGGAAACUUGGAGCACCAUUUCGCUGCCAGUGAAGAAAUGAACAAAGAAGAUCUGGGCCAGGCAGGCAUCAAAAGAAAUAGUCUUGCGCUCAACCAGAAAGUCUGUAAUCAUUUUAAGGGUA yielded a self-cleavage of 1.61. In the case of GUUAACGGUCAUAGGCCAUGGAAACUUGGAGCACCAUUACGCUGCCAGUGAAGAAAUGAACAAAGAAAAUCUGGGCCAGGCAGGCAUCAAAAGAAAUAGUCUUGCGCUCAACCAGAAAGUCUGUAAUCAUUUUAAGGGUA, the self-cleavage is reported as 1.49. Work on GUUAACGGUCAUAGGCCAUGGAAACUUGGAGCACCAUUCCGCUGCCAGUGAAGAAAUGAACAAAGAAAAUCUGGGCCAGGCAGGCAUCAAAAGAAAUAGUCUUGCGCUCAACCAGAAAGUCUGUAAUCAUUUUAAGGGUA yielded a self-cleavage of 0.93. With GUUAACGGUCAUAGGCCAUGGAAACUUGGAGCACCAUUUCGCUGCCAGUGAAAAAAUGAACAAAGAAAAUCUGGGCCAGGCAGGCAUCAAAAGAAAUAGUCUUGCGCUCAACCAGAAAGUCUGUAAUCAUUUUAAGGGUA the self-cleavage was 1.86. For GUUAACGGUCAUAGGCCAUGGAAACUUGGAGCACCAUUUCGCUGCCAGCGAAGAAAUGAACAAAGAAAAUCUGGGCCAGGCAGGCAUCAAAAGAAAUAGUCUUGCGCUCAACCAGAAAGUCUGUAAUCAUUUUAAGGGUA, the self-cleavage was 2.12. GUUAACGGUCAUAGGCCAUGGAAACUUGGAGCACCAUUUCGCUGCCAGUGAAGAAAUGAACAAAGAAAAUCUGGGCCAGGCAGGCAACAAAAGAAAUAGUCUUGCGCUCAACCAGAAAGUCUGUAAUCAUUUUAAGGGUA showed a self-cleavage of 1.48. Work on GUUAACGGUCAUAGGCCAUGGAAACUAAGAGCACCAUUUCGCUGCCAGUGAAGAAAUGAACAAAGAAAAUCUGGGCCAGGCAGGCAUCAAAAGAAAUAGUCUUGCGCUCAACCAGAAAGUCUGUAAUCAUUUUAAGGGUA yielded a self-cleavage of 1.09. With GUUAACGGUCAUAGGCCAUGGAAACUUGGAGCACCAUUUCGCUGCCAGUGAAGAAAUGAACAAAGAAAAUCUGGGCCAGGCAGGCAUCAAAAGAAAUAGUCUUGCGCUCAACCAGAAAGUCUGUAAUCAUUAUAAGGGUA the self-cleavage was 1.42. GUUAACGGUCAUAGGCCAUGGAAACUUGGAGCACCAUUUCGCUGCCAGUGAAGAAAUGAACAAAGAAAAUCUGGGCCAGGCAAGCAUCAAAAGAAAUAGUCUUGCGCUCAACCAGAAAGUCUGUAAUCAUUUUAAGGGUA gave a self-cleavage of 1.31. For GUUAACGGUCAUAGGCCAUGGAAACUUGGAGCACCAUUUCGCUGCCAGUGAAGAAAUGAACAAAGAAAAUCUGGGCCAGGCAGGCAUCAAAGGAAAUAGUCUUGCGCUCAACCAGAAAGUCUGUAAUCAUUUUAAGGGUA, the self-cleavage was 1.83. For GUUAACGGUCAUAGGCCAUGGAAACUUGGAGCACCAUUUCGCUGCCAGUGAAGAAAUGAACAAAGAAAAUCUGGGCCAGGCAGGCAUCAAAAGAAAUAAUCUUGCGCUCAACCAGAAAGUCUGUAAUCAUUUUAAGGGUA, the self-cleavage was 0.6. Variant GUUAACGGUCAUAGGCCAUGGAAACUUGGAGCACCAUUUCGCUGCCAGUGAAGAAAUGAACAAAGAAAAUCUGGGCCAGGCAGGCAUCAAAAGAAAUAGUCUUGCGCUCAACCAGAAAGACUGUAAUCAUUUUAAGGGUA has a self-cleavage of 1.85. Variant GUUAACGGUCAUAGGCCAUGGAAACUUGGAGCACCAUUUCGCUGCCAGUGAAGAAAUGAACAAAGAAAAUCUGGGCCAGGCAGGCGUCAAAAGAAAUAGUCUUGCGCUCAACCAGAAAGUCUGUAAUCAUUUUAAGGGUA has a self-cleavage of 1.43. For GUUAACGGUCAUAGGCCAUGGAAACUUGGAGCACCAUUUCGCGGCCAGUGAAGAAAUGAACAAAGAAAAUCUGGGCCAGGCAGGCAUCAAAAGAAAUAGUCUUGCGCUCAACCAGAAAGUCUGUAAUCAUUUUAAGGGUA, the self-cleavage was 1.64. GUUAACGGUCAUAGGCCAUGGAAACUUGGAGCACCAUUUCGCUGCCAGUGAAGAAAUGAACAAAGAAAAUCUGGGCCAGGCAGGCAUCAAAAGAAAUAGUCUUGCGCCCAACCAGAAAGUCUGUAAUCAUUUUAAGGGUA showed a self-cleavage of 0.03. In the case of GUUAACGGUCAUAGGCCAUGGAAACUUGGAGCACCAUUUCGCUGCCAGUGAAGAAAUGAACAAAGAAAAUCUGGGCCAGGCAGGCAUCAAAAGAAAUAGUCUUGCGCUCAACCAGGAAGUCUGUAAUCAUUUUAAGGGUA, the self-cleavage is reported as 0.63. Work on GUUAACGGUCAUAGGCCAUGGAAACUUGGAGCACCAUUUCGCUGCCAGUGAAGAAAUGAACAAAGAAAAUCUGGGCCAGGCAGGCAUCAAGAGAAAUAGUCUUGCGCUCAACCAGAAAGUCUGUAAUCAUUUUAAGGGUA yielded a self-cleavage of 1.19. For GUUAACGGUCAUAGGCCAUGGAAACUUGGAGCACCAUUUCGCUGCCAGUGAAGAAAUGAACAAAGAAAAUCUGGGCCAGGCAGGCAUCAAAAGAAAUAGUCUUGCGCUCAACCAGAAAGUCUGUGAUCAUUUUAAGGGUA, the self-cleavage was 0.84. With GUUAACGGUCAUAGGCCAUGGAAACUUGGAGCACCAUUUCGCUGCCAGUGAAGAAAUGAACAAAGAAAAUCUGGGCCAGGCAGGCAUCAAAAGAAAUAGUCUUGCGCUCAACCAGAAGGUCUGUAAUCAUUUUAAGGGUA the self-cleavage was 1.21.
